Patent US20250206818A1 (AGENUS, published 2025)
Positions count from the first letter of the chain named. In names and notes the source's numbering stands.

B1: P13B11 Fab (Fab, V domains shown)
VH: QVQLQQPGAELVKPGASVKLSCTASGFNIKDNYMDWVKQRPEQGLEWIGKIDPANGNTKYDPKFQGKATITADTSSNTAYLQLSSLTSEDTAVYYCATYYYRYDVGGFDYWGQGTTLTVS
VL: QIVLTQSPALMAASPGEKVTITCSVSSSISSSNLHWFQQKSGTSPKLWIYGTSNLASGVPVRFSGSGSGTSYSLTISSMEAEDAATYYCQQWSSYPFTFGSGTKLEIK
notes: Murine Fab, periplasmic extract
B2: P16H05 Fab (Fab, V domains shown)
VH: B1 VH with M34I, D35H, K50S, T69S, T98S, Y100F
VL: B1 VL with Q1E, F37Y, F97H, S101G
notes: as for B1
B3: P13B02 Fab (Fab, V domains shown)
VH: B1 VH with L4M, Q5K, P7S, N32T, M34I, D35H, K50E, G56D
VL: B1 VL with Q1E, V3L
notes: as for B1
B4: P14B07 Fab (Fab, V domains shown)
VH: B1 VH with M34I, D35H, K50S, T69S, A92T, T98S, Y100F
VL: B1 VL with Q1E, I2N, F37Y
notes: as for B1
B5: P13C08 Fab (Fab, V domains shown)
VH: B1 VH with Q5K, P7S, M34I, D35H, K50S, T69S, T98S, Y100F
VL: B1 VL with Q1D, I2V, L4M, S7T
notes: as for B1
B6: P01C09 Fab (Fab, V domains shown)
VH: QVQLKQSGAELVKPGASVKLSCTASGFNIKDTYMYWVKQRPEQGLEWIGRIDPANGNTKYDPKLQGKATITADTSSNTVYLQLSSLTSEDTAVFYCVIYSYRYDVGGFDYWGQGTTLTVS
VL: B1 VL with Q1E, F37Y
notes: as for B1
B7: P13D04 Fab (Fab, V domains shown)
VH: B1 VH with P7S
VL: B1 VL with Q1D, S44P
notes: as for B1
B8: P14G03 Fab (Fab, V domains shown)
VH: B1 VH with L4M, Q5K, P7S, N32T, M34I, D35H, E42G, K50E
VL: B1 VL with Q1D, H35Y
notes: as for B1
B9: P14F06 Fab (Fab, V domains shown)
VH: B1 VH with L4M, Q5K, P7S, M34I, D35H, K50S, T69S, T98S, Y100F
VL: B1 VL with Q1E
notes: as for B1
B10: P13H05 Fab (Fab, V domains shown)
VH: B1 VH with N32T, M34I, D35H, K50E, G56D
VL: B1 VL with Q1E, I2N
notes: as for B1
B11: P15B06 Fab (Fab, V domains shown)
VH: B1 VH with Q1E, P7S, N32T, D35Y, E46D, K50R, K59H, Y60F, A97S, Y100F
VL: B1 VL with V3L, F37Y, F97L, S101A, I107L
notes: as for B1
B12: P13F09 Fab (Fab, V domains shown)
VH: B1 VH with P7S, M34I, D35H, K50S, T69S, D90G, T98S, Y100F
VL: B1 VL with Q1E
notes: as for B1
B13: P13E02 Fab (Fab, V domains shown)
VH: B1 VH with A24V, N32T, M34I, D35H, K50E, T58S, D61A, K63R
VL: B1 VL with Q1E, I2N
notes: as for B1
B14: P13F02 Fab (Fab, V domains shown)
VH: B1 VH with N32T, M34I, D35H, E46D, I48V, K50E, N57H
VL: B1 VL with Q1E, I2N
notes: as for B1
B15: P13A06 Fab (Fab, V domains shown)
VH: B6 VH with L64F
VL: B1 VL with Q1E, I2N, F37Y, F97H, S101G
notes: as for B1
B16: P13B03 Fab (Fab, V domains shown)
VH: B1 VH with Q1E, P7S, N32T, M34I, D35H, K50E
VL: B1 VL with Q1E, I2N
notes: as for B1
B17: full length chimeric anti-LAG-3 antibody P13B02 (antibody, V domains shown)
VH: B1 VH with L4M, Q5K, P7S, N32T, M34I, D35H, K50E, G56D
VL: B1 VL with Q1E, V3L
notes: Murine variable regions on human heavy (Ch1, Ch2, Ch3) and light (CL) constant regions; full-length IgG1 chimeric antibody; also called chimeric antibody P13B02 (IgG1)
B18: P13B02-06 (antibody, IgG1, V domains shown)
VH: QVQLVQSGAEVKKPGASVKVSCKASGFNIKDTYIHWVRQAPGQGLEWMGEIDPANDNTKYDPKFQGRVTITADTSTSTVYMELSSLRSEDTAVYYCATYYYRYDVGGFDYWGQGTLVTVSS
VL: EIVLTQSPGTLSLSPGERATLSCSVSSSISSSNLHWYQQKPGQAPRLLIYGTSNLASGIPDRFSGSGSGTDFTLTISRLEPEDFAVYYCQQWSSYPFTFGQGTKVEIK
notes: Humanized; generated as full length IgG1; also called P13B02-06 (IgG1)
B19: P13B02-16 (antibody, IgG1, V domains shown)
VH: B18 VH with L4M, V5K, K23T, T76S, S77N
VL: B18 VL
notes: Humanized; generated as full length IgG1; also called P13B02-16 (IgG1)
B20: P13B02-25 (antibody, IgG1, V domains shown)
VH: B18 VH with L4M, V5K, K12V, K23T, M48I, T76S, S77N, M81L, E82Q
VL: B18 VL with V3L, S22T, Y37F, A44S, L48W, I59V, D71S, F72Y
notes: Humanized; generated as full length IgG1; also called P13B02-25 (IgG1)
B21: P13B02-30 (IgG1 G1m17 N297A) (antibody, V domains shown)
VH: B18 VH with L4M, R102K
VL: B18 VL
notes: Full length antibody containing IgG1 G1m17 allotype with a N297A mutation (EU)
B22: P13B02-30 (IgG4) (antibody, V domains shown)
VH: B18 VH with L4M, R102K
VL: B18 VL
B23: P13B02-07 (antibody, IgG1, V domains shown)
VH: B18 VH
VL: B18 VL with D71S, F72Y
notes: Humanized; generated as full length IgG1; also called P13B02-07 (IgG1)

Assays:
[1] = target: T1, human LAG-3 (human, UniProt P18627 23-450, limits assumed); test: Fab phage display selection; periplasmic extracts screened by ELISA or flow cytometry
T1 construct: Selections used human LAG-3-Fc, human LAG-3-6His, a 30 aa LAG-3 peptide and/or cells with cynomolgus LAG-3; also called CD223
T1 sequence (looked up): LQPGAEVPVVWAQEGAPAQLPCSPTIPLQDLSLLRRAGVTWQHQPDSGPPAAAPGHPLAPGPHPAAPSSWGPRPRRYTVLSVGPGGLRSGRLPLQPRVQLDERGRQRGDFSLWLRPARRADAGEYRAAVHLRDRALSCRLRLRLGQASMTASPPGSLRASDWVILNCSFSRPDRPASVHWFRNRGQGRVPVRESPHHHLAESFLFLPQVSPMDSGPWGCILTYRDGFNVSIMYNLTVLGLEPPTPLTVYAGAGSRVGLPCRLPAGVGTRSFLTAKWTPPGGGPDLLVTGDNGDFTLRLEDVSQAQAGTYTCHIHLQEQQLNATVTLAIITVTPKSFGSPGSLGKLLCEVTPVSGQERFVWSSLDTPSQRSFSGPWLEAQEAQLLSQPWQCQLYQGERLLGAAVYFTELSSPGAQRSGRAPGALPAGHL
Source text: Anti-LAG-3 antibodies were identified by generation and selection of an immunized Fab phage display library. […] Per mouse, a Fab library was then generated by random-primed cDNA using total RNA as a template to amplify variable regions from mouse antibody genes. Heavy and kappa chain amplicons were combined and cloned into phagemid vectors. […] The 30 amino acid human LAG-3 peptide is a biotinylated peptide comprising the amino acid sequence of […] (SEQ ID NO: 199). Periplasmic extracts of selected Fab clones were then screened by ELISA or flow cytometry. Antibody sequencing and off-rate analysis were then performed on anti-LAG-3 Fabs.

[2] = target: T2, human LAG-3 expressed on cells (human, UniProt P18627 23-525); test: flow cytometry, Fab periplasmic extract on Jurkat cells expressing human LAG-3 (FIGS. 1A-1C)
T2 construct: whole, on cells; also called CD223
T2 sequence (looked up): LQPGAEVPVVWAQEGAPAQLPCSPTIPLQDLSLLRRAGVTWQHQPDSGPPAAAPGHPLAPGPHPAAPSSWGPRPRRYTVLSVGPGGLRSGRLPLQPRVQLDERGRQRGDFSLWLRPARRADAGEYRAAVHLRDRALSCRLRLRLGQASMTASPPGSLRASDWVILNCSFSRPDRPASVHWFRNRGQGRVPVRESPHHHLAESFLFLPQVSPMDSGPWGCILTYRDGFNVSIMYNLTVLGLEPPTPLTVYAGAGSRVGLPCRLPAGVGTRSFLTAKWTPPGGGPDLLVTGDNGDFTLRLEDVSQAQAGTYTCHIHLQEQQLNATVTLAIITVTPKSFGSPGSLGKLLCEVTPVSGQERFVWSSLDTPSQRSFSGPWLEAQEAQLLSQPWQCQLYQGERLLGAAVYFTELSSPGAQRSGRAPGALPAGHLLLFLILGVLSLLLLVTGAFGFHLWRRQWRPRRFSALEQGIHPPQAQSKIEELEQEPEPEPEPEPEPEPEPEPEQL
Procedure: The anti-LAG-3 Fabs from periplasmic extracts were tested for binding to LAG-3-expressing cells using flow cytometry. Briefly, wild type and human LAG-3-expressing Jurkat cells were plated at 2×10⁵ cells/well in sample buffer (PBS (Gibco, Cat #10010-015)+0.5% FBS (Gibco, Cat #10270-106)) in 96-well U-bottom plates (Sarstedt). 22 μl of anti-LAG-3 Fab periplasmic extract and 83 μl of diluted anti-c-myc antibody (Gentaur, Clone #9E10, Cat #04-cmyc-9E10) were incubated for 30 minutes at room temperature. 100 μl of the periplasmic extract/anti-c-myc mixture was added to cells and then incubated for one hour on ice. Cells were washed three times and then incubated with a goat anti-mouse APC (BD Biosciences, Cat #550826) for 30 minutes on ice. Cells were washed three times and then analyzed with a FACS machine (BD Accuri6).

[3] = target: T2, human LAG-3 expressed on cells; test: flow cytometry, 10 ug/ml antibody on SEA-activated primary human CD4+ T cells (FIG. 6A)
[4] = target: T3, recombinant human LAG-3 (human, UniProt P18627 23-450, limits assumed); test: surface plasmon resonance (data not shown)
T3 sequence (looked up): T1 sequence (looked up)

| Binder | binding result [1] | binding result [2] | binding result [3] | binding result [4] |
| --- | --- | --- | --- | --- |
| B1 | binds | binds |  |  |
| B2 | binds | binds |  |  |
| B3 | binds | binds |  |  |
| B4 | binds | binds |  |  |
| B5 | binds | binds |  |  |
| B6 | binds | binds |  |  |
| B7 | binds | binds |  |  |
| B8 | binds | binds |  |  |
| B9 | binds | binds |  |  |
| B10 | binds | binds |  |  |
| B11 | binds | binds |  |  |
| B12 | binds | binds |  |  |
| B13 | binds | binds |  |  |
| B14 | binds | binds |  |  |
| B15 | binds | binds |  |  |
| B16 | binds | binds |  |  |
| B17 |  |  | binds |  |
| B18 |  |  | binds | binds |
| B19 |  |  | binds | binds |
| B20 |  |  | binds | binds |
| B21 |  |  | binds |  |
| B22 |  |  | binds |  |
| B23 |  |  | binds | binds |
